Read-outs that look alike come from different tables or passages of the source.
Legend:
Experiment in all cases: far-Western, overlay or dot blot
[1] = biological target: T1, AnaPnp, recombinant Anabaena PNPase (Anabaena PCC7120, UniProt Q8YP11 1-718)
T1 sequence (looked up): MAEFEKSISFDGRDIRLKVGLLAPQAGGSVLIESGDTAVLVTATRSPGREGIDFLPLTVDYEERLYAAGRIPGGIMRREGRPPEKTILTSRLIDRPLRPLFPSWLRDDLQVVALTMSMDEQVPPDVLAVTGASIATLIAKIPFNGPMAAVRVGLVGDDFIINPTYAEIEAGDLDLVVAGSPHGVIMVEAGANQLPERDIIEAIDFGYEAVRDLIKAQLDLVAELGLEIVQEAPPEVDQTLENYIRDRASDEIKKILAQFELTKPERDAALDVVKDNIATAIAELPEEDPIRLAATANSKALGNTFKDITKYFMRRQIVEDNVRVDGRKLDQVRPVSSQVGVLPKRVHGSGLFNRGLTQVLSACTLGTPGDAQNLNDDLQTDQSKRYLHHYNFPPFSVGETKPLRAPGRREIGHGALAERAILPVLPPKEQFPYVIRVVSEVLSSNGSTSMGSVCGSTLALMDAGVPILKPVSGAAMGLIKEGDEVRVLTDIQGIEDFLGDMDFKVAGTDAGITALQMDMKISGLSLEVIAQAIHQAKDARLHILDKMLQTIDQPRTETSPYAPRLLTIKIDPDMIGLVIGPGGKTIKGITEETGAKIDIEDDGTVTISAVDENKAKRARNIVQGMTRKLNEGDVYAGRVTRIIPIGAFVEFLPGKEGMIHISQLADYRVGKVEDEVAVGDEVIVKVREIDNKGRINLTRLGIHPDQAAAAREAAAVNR

[2] = biological target: T2, SynPnp, recombinant Synechocystis PNPase (Synechocystis PCC6803, UniProt P72659 1-718)
T2 sequence (looked up): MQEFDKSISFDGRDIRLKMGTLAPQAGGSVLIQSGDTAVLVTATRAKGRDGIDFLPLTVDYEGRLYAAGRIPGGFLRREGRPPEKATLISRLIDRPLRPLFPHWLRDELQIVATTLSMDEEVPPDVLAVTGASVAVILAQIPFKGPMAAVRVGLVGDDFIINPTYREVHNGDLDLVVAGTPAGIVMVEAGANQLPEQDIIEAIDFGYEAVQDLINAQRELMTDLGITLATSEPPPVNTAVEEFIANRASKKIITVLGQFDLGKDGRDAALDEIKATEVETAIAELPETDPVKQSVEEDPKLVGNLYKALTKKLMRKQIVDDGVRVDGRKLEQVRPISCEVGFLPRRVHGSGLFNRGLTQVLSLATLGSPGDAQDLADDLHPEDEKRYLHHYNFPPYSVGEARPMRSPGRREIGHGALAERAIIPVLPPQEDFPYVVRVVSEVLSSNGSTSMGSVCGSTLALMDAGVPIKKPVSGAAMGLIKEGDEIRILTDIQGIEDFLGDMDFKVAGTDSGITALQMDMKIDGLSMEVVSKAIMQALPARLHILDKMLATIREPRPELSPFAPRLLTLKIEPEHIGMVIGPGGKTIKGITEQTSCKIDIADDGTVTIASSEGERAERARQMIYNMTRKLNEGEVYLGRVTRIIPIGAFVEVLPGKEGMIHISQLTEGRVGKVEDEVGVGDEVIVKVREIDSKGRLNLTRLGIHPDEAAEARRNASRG

[3] = biological target: T2, SynPnp, recombinant Synechocystis PNPase; remark: listed apart in the source

STANRRRRRRSSASDSD [GFP-C4a (GFP fused at its C-terminus to C4 with four flanking residues at both ends)]
binding result [1]: binds

RRRRRRSSA [synthetic nonapeptide of C4]
binding result [2]: binds

RRRRRRSSA [GFP-C4b (GFP fused at its C-terminus to the C4 nonapeptide)]
binding result [3]: binds
